Substitutions are numbered along the chain they refer to.
Key:
Conditions in all cases: chain copies: 2
IL-17 [1] = biological target: T1, IL-17 (Homo sapiens, UniProt Q16552 Q16552:24-155); experiment: SPR; IL-17R-Fc on chip
T1 sequence: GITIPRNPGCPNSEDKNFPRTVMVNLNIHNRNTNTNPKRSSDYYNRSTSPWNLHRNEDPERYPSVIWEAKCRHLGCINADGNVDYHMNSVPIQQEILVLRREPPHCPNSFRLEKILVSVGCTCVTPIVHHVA
Method: Whether aptamers shown by aptamer Nos. 1-49 inhibit the binding of IL-17 and IL-17 receptor was evaluated by the surface plasmon resonance method.
For the measurement, BIAcore2000 manufactured by BIAcore was used. […] As an analyte, IL-17 (100 or 150 nM) and an aptamer (50 or 100 nM) shown by aptamer No. 1-49 were mixed, maintained for 15 min and after that the mixture was flown.

IL-17 [2] = biological target: T1, IL-17; experiment: cell_activity; NIH3T3 IL-6 release
Method: (§1) First, human IL-17 and the aptamer produced in Example 1-1 were pre-incubated at 37° C. for 30 min, and added to NIH3T3 cell (ATCC, CRL1658) together with mouse TNFα (2 ng/mL). Then, after incubation for 24 hr, the culture supernatant was collected, and the amount of IL-6 was measured by BD Cytometric Bead Array (BD Biosciences). The IL-17 inhibitory action of each aptamer was determined from the amount of IL-6. For comparison with the aptamer of the present invention, a conventionally-known aptamer (aptamer No. 50) against IL-17 was used.

IL-17 (IL-17A) [3] = biological target: T2, IL-17 (IL-17A) (Homo sapiens, UniProt Q16552 Q16552:24-155); experiment: cell_activity; IL-6 release, NIH3T3
T2 sequence: T1 sequence
Method: as §1

IL-17 [4] = biological target: T1, IL-17; experiment: cell_activity; NIH3T3 IL-6 release; remark: listed apart in the source
Method: First, human IL-17 and the aptamer produced in Example 1-2 were pre-incubated at 37° C. for 30 min, and added to NIH3T3 cell (ATCC, CRL1658) together with mouse TNFα (2 ng/mL). Then, after incubation for 24 hr, the culture supernatant was collected, and the production amount of IL-6 was measured by ELISA method described below. The IL-17 inhibitory action of each aptamer was determined from the production amount of IL-6. For comparison with the aptamer of the present invention, a conventionally-known aptamer (aptamer No. 50) against IL-17 was used.
ELISA method for verifying IL-17 inhibitory action of aptamer: A microtiter plate for ELISA was coated with rat anti-mouse IL-6 antibody (BD Biosciences, 2 μg/mL; 100 μL/well) diluted with PBS, and incubated at 4° C. overnight. The next day, the microtiter plate was washed 3 times with PBS/0.05% Tween 20, and applied blocking with PBS/1% BSA (200 μL/well) at room temperature for 2 hr. Then, the plate was washed 3 times with PBS/0.05% Tween 20. Recombinant mouse IL-6 (BD Biosciences; 100 μL/well) serially diluted with PBS/1% BSA/0.05% Tween 20 or culture supernatants (100 μL/well) were added to the plate. After incubation at room temperature for 2 hr, the plate was washed 3 times with PBS/0.05% Tween 20. Then, 100 μL/well of biotin conjugated rat anti-mouse IL-6 antibody (BD Biosciences) was added to the plate at final dilution of 1/500, and the mixture was reacted at room temperature for 1 hr. After washing 3 times with PBS/0.05% Tween 20, 100 μL/well of alkaline phosphatase conjugated streptavidin was added at final dilution of 1/1000. After 30 min at room temperature, the plate was again washed 4 times with PBS/0.05% Tween 20, and a substrate (1-Step PNPP; Thermo Fisher Scientific Inc; 100 μL/well) was added. After 15 min, aqueous sodium hydroxide solution (2N: 50 μL/well) was added to stop the reaction, and the plate was read on a microtiter reader (Bio-Rad) by using a 405 nm filter.

IL-17 (IL-17A) [5] = biological target: T2, IL-17 (IL-17A); experiment: cell_activity; IL-6 release, NIH3T3, 37 C
Method: as §1

B1: aptamer No. 19 (mixed)
mixed: GGGUAGCCGGAGGAGTCAGTAAUCGGUACCC
modifications: 2'-OMe (M), 2'-F (F), PS (S) as marked; uppercase DNA [2'-OMe: 1-4,7,8,10,13,14,21-26,28; 2'-F: 17,18,27; PS: 6]
In the case of B1, the binding signal (IL-17 [1]) is reported as 8.46 % IL-17/IL-17R binding remaining and the IC50 (IL-17 [2]) is reported as 2.78 nM.

B2: aptamer No. 45 (mixed)
mixed: B1 mixed
modifications: g(M)g(M)g(M)u(M)Ag(S)c(M)c(M)Gg(M)agg(M)a(M)gTc(F)agTaau(M)c(M)g(M)g(M)u(F)a(M)CCC
In the case of B2, the IC50 (IL-17 (IL-17A) [3]) is reported as 0.76 nM.

B3: aptamer No. 44 (mixed)
mixed: B1 mixed with U27T
modifications: g(M)g(M)g(M)u(M)Agc(M)c(M)Gg(M)agg(M)a(M)gTc(F)AgTa(M)au(M)c(M)g(M)g(M)Ta(M)c(M)c(M)c(M)
With B3 the IC50 (IL-17 (IL-17A) [3]) was 1.83 nM.

B4: aptamer No. 47 (mixed)
mixed: B1 mixed
modifications: g(M)g(M)g(M)u(M)Agc(M)c(M)Gg(M)a(F)gg(M)a(M)gTc(F)a(F)gTaau(M)c(M)g(M)g(M)u(F)a(M)CCC
B4 showed an IC50 (IL-17 (IL-17A) [3]) of 0.59 nM.

B5: aptamer No. 23 (mixed)
mixed: B1 mixed with U27T
modifications: 2'-OMe (M), 2'-F (F), PS (S) as marked; uppercase DNA [2'-OMe: 1-4,7,8,10,13,14,23-26,29-31; 2'-F: 17; PS: 6]
With B5 the binding signal (IL-17 [1]) was 13.4 % IL-17/IL-17R binding remaining and the IC50 (IL-17 [2]) was 1.34 nM.

B6: aptamer No. 24 (mixed)
mixed: B1 mixed with U27T
modifications: 2'-OMe (M), 2'-F (F) as marked; uppercase DNA [2'-OMe: 1-4,7,8,10,13,14,23-26,29-31; 2'-F: 17]
In the case of B6, the binding signal (IL-17 [1]) is reported as 15.2 % IL-17/IL-17R binding remaining and the IC50 (IL-17 [2]) is reported as 1.77 nM.

B7: aptamer No. 67 (mixed)
mixed: B1 mixed
modifications: 2'-OMe (M), 2'-F (F), PS (S) as marked; uppercase DNA [2'-OMe: 1-5,7,8,10,13,14,17,21-31; 2'-F: 11,18; PS: 6,15,19]
With B7 the IC50 (IL-17 [4]) was 5.95 nM.

B8: aptamer No. 43 (mixed)
mixed: B1 mixed with U27T
modifications: g(M)g(M)g(M)u(M)Agc(M)c(M)Gg(M)agg(M)a(M)gTc(F)agTa(M)au(M)c(M)g(M)g(M)Ta(M)c(M)c(M)c(M)
For B8, the IC50 (IL-17 (IL-17A) [3]) was 0.49 nM.

B9: aptamer No. 57 (mixed)
mixed: B1 mixed
modifications: 2'-OMe (M), 2'-F (F), PS (S) as marked; uppercase DNA [2'-OMe: 1,2,3,4,7,8,10,13,14,19,21,22,23,24,25,26,28; 2'-F: 11,17,18,27; PS: 6,15]
B9 gave an IC50 (IL-17 [4]) of 2.36 nM.

B10: aptamer No. 61 (mixed)
mixed: B1 mixed
modifications: 2'-OMe (M), 2'-F (F), PS (S) as marked; uppercase DNA [2'-OMe: 1,2,3,4,7,8,10,11,13,14,19,21,22,23,24,25,26,28; 2'-F: 17,18,27; PS: 6,15]
Work on B10 yielded an IC50 (IL-17 [4]) of 3.41 nM.

B11: aptamer No. 41 (mixed)
mixed: B1 mixed with U27T
modifications: g(M)g(M)g(M)u(M)Agc(M)c(M)Gg(M)agg(M)a(M)gTc(F)agTaau(M)c(M)g(M)g(M)Ta(M)c(M)c(M)c(M)
B11 gave an IC50 (IL-17 (IL-17A) [3]) of 0.4 nM.

B12: aptamer No. 29 (mixed)
mixed: B1 mixed with U27T
modifications: g(M)g(M)g(M)u(M)Agc(M)c(M)Gg(M)Agg(M)a(M)gTc(F)agTa(M)a(M)u(M)c(M)g(M)g(M)Ta(M)c(M)c(M)c(M)
Work on B12 yielded an IC50 (IL-17 (IL-17A) [3]) of 2.53 nM.

In the case of GGGUAGCCGGAGGAGTCAGTAAUCGGTACCC (mixed, g(M)g(M)g(M)u(M)Agc(M)c(M)gg(M)Agg(M)a(M)gTc(F)agTa(M)a(M)u(M)c(M)g(M)g(M)TACCC) [aptamer No. 32], the IC50 (IL-17 (IL-17A) [3]) is reported as 4.62 nM.

With GGGUAGCCGGAGGAGTCAGTAAUCGGTACCC (mixed, g(M)g(M)g(M)u(M)Agc(M)c(M)gg(M)Agg(M)a(M)gTc(F)agTa(M)Au(M)c(M)g(M)g(M)TACCC) [aptamer No. 33] the IC50 (IL-17 (IL-17A) [3]) was 4.31 nM.

B13: aptamer No. 37 (mixed)
mixed: B1 mixed with U27T
modifications: g(M)g(M)g(M)u(M)Agc(M)c(M)Gg(M)Agg(M)a(M)gTc(F)agTaAu(M)c(M)g(M)g(M)Ta(M)c(M)c(M)c(M) (one (M) misprinted as (NI))
With B13 the IC50 (IL-17 (IL-17A) [3]) was 1.64 nM.

B14: aptamer No. 3 (mixed)
RNA: B1 mixed with T16U, T20U
modifications: 2'-OMe (M), 2'-F (F) as marked; uppercase DNA [1,2,3,4,5,7,8,10,11,13,14,16,17,18,20,21,22,23,24,25,26,27]
In the case of B14, the binding signal (IL-17 [1]) is reported as 25.3 % IL-17/IL-17R binding remaining and the IC50 (IL-17 [2]) is reported as 2.08 nM.

B15: aptamer No. 2 (mixed)
RNA: B1 mixed with T16U, T20U
modifications: 2'-OMe (M), 2'-F (F), PS (S) as marked; uppercase DNA [2'-OMe at 1-3,10; 2'-F at 4,7,8,16,17,20,23,24,27; PS at 6; DNA at 9,29-31]
With B15 the binding signal (IL-17 [1]) was 32 % IL-17/IL-17R binding remaining and the IC50 (IL-17 [2]) was 0.68 nM.

B16: aptamer No. 28 (mixed)
mixed: B1 mixed with U27T
modifications: g(M)g(M)g(M)u(M)Agc(M)c(M)Gg(M)Agg(M)a(M)gTc(F)agTaau(M)c(M)g(M)g(M)Ta(M)c(M)c(M)c(M)
Work on B16 yielded an IC50 (IL-17 (IL-17A) [3]) of 2.11 nM.

B17: aptamer No. 26 (mixed)
mixed: B1 mixed with U27T
modifications: (M)=2'-OMe,(F)=2'-F,(S)=PS, lowercase RNA, uppercase DNA: g(M)g(M)g(M)u(M)Ag(S)c(M)c(M)Gg(M)Agg(M)a(M)gTc(F)agTaau(M)c(M)g(M)g(M)Ta(M)c(M)c(M)c(M)
Work on B17 yielded an IC50 (IL-17 (IL-17A) [5]) of 0.78 nM.

B18: aptamer No. 31 (mixed)
mixed: B1 mixed with U27T
modifications: g(M)g(M)g(M)u(M)Ag(S)c(M)c(M)Gg(M)Agg(M)a(M)gTc(F)agTaau(M)c(M)g(M)g(M)TAc(M)c(M)c(M)
With B18 the IC50 (IL-17 (IL-17A) [3]) was 0.3 nM.
